In US20140206609A1 (Sanofi, published 2014):
*1 amine or outer side, *2 acyl side, *3 side chain or, on linkers, in order; H or OH if unused. Where no end group is shown, it is not given here. Side-chain parts run from the residue outwards. [ ]: non-standard residue; d: D form. The star is where a group is joined. γGlu = O=C(O)[C@H](CCC(=O)[*:2])N[*:1]; Palmitoyl = CCCCCCCCCCCCCCCC(=O)*; Aib = CC(C)(N)C(=O)O

What was measured:
Assay in all cases: cell-based or functional assay
human GLP-1 receptor = human GLP-1 receptor (human, UniProt P43220 24-463)
human GIP receptor = target: T1, human GIP receptor (human, UniProt P48546 22-466)
T1 sequence (looked up): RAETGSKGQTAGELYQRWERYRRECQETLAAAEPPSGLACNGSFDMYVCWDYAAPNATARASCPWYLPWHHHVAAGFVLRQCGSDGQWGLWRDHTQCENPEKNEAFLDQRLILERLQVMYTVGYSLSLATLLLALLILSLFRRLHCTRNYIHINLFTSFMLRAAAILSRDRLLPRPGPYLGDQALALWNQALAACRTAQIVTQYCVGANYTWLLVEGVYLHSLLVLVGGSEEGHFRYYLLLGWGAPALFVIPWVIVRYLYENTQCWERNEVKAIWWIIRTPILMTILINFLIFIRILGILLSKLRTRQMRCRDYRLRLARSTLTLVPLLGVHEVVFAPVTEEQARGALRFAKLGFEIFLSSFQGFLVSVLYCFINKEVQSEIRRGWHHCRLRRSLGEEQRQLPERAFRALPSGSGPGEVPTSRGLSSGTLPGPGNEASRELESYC

human glucagon receptor = human glucagon receptor (human, UniProt P47871 26-477)
human glucagon receptor, sequence (P47871 26-477): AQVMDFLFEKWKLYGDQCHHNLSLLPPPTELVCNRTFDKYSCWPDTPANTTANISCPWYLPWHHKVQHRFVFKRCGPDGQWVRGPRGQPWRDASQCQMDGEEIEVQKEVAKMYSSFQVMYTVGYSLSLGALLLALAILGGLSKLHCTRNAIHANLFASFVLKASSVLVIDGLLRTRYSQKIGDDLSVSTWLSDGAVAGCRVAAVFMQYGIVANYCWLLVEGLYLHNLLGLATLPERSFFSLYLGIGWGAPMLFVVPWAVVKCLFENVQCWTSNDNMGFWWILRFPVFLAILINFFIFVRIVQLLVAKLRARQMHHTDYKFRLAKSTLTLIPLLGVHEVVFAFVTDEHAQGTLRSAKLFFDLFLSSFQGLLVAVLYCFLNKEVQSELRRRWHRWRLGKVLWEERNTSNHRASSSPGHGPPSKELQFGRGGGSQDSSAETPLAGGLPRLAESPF

B1: SEQ ID NO: 30 (peptide)
peptide: Y[Aib]QGTFTSDLSIQK([γGlu-Palmitoyl])DSRAA[Aib]DFIEWLKAGGPSSGAPPPS-NH2
modifications: N-terminus assumed
SMILES: CCCCCCCCCCCCCCCC(=O)N[C@@H](CCC(=O)NCCCC[C@H](NC(=O)[C@H](CCC(N)=O)NC(=O)[C@@H](NC(=O)[C@H](CO)NC(=O)[C@H](CC(C)C)NC(=O)[C@H](CC(=O)O)NC(=O)[C@H](CO)NC(=O)[C@@H](NC(=O)[C@H](Cc1ccccc1)NC(=O)[C@@H](NC(=O)CNC(=O)[C@H](CCC(N)=O)NC(=O)C(C)(C)NC(=O)[C@@H](N)Cc1ccc(O)cc1)[C@@H](C)O)[C@@H](C)O)[C@@H](C)CC)C(=O)N[C@@H](CC(=O)O)C(=O)N[C@@H](CO)C(=O)N[C@@H](CCCNC(=N)N)C(=O)N[C@@H](C)C(=O)N[C@@H](C)C(=O)NC(C)(C)C(=O)N[C@@H](CC(=O)O)C(=O)N[C@@H](Cc1ccccc1)C(=O)N[C@H](C(=O)N[C@@H](CCC(=O)O)C(=O)N[C@@H](Cc1c[nH]c2ccccc12)C(=O)N[C@@H](CC(C)C)C(=O)N[C@@H](CCCCN)C(=O)N[C@@H](C)C(=O)NCC(=O)NCC(=O)N1CCC[C@H]1C(=O)N[C@@H](CO)C(=O)N[C@@H](CO)C(=O)NCC(=O)N[C@@H](C)C(=O)N1CCC[C@H]1C(=O)N1CCC[C@H]1C(=O)N1CCC[C@H]1C(=O)N[C@@H](CO)C(N)=O)[C@@H](C)CC)C(=O)O
In the case of B1, the “EC50 hGLP-1 R [pM]” value (human GLP-1 receptor) is reported as 12 pM, the “EC50 hGIP R [pM]” value (human GIP receptor) is reported as 22.1 pM and the “EC50 hGLUC R [pM]” value (human glucagon receptor) is reported as 226 pM.

B2: SEQ ID NO: 31 (peptide)
peptide: Y[Aib]EGTFTSDLSIQK([γGlu-Palmitoyl])DKRAAQDFIEWLKAGGPSSGAPPPS-NH2
modifications: N-terminus assumed
SMILES: CCCCCCCCCCCCCCCC(=O)N[C@@H](CCC(=O)NCCCC[C@H](NC(=O)[C@H](CCC(N)=O)NC(=O)[C@@H](NC(=O)[C@H](CO)NC(=O)[C@H](CC(C)C)NC(=O)[C@H](CC(=O)O)NC(=O)[C@H](CO)NC(=O)[C@@H](NC(=O)[C@H](Cc1ccccc1)NC(=O)[C@@H](NC(=O)CNC(=O)[C@H](CCC(=O)O)NC(=O)C(C)(C)NC(=O)[C@@H](N)Cc1ccc(O)cc1)[C@@H](C)O)[C@@H](C)O)[C@@H](C)CC)C(=O)N[C@@H](CC(=O)O)C(=O)N[C@@H](CCCCN)C(=O)N[C@@H](CCCNC(=N)N)C(=O)N[C@@H](C)C(=O)N[C@@H](C)C(=O)N[C@@H](CCC(N)=O)C(=O)N[C@@H](CC(=O)O)C(=O)N[C@@H](Cc1ccccc1)C(=O)N[C@H](C(=O)N[C@@H](CCC(=O)O)C(=O)N[C@@H](Cc1c[nH]c2ccccc12)C(=O)N[C@@H](CC(C)C)C(=O)N[C@@H](CCCCN)C(=O)N[C@@H](C)C(=O)NCC(=O)NCC(=O)N1CCC[C@H]1C(=O)N[C@@H](CO)C(=O)N[C@@H](CO)C(=O)NCC(=O)N[C@@H](C)C(=O)N1CCC[C@H]1C(=O)N1CCC[C@H]1C(=O)N1CCC[C@H]1C(=O)N[C@@H](CO)C(N)=O)[C@@H](C)CC)C(=O)O
B2 was tested, and the “EC50 hGLP-1 R [pM]” value (human GLP-1 receptor) was 6 pM, the “EC50 hGIP R [pM]” value (human GIP receptor) was 6.5 pM and the “EC50 hGLUC R [pM]” value (human glucagon receptor) was 3080 pM.
